Assay results taken from article PMC7849316, “Tyrosine phosphorylation regulates hnRNPA2 granule protein partitioning and reduces neurodegeneration” (The EMBO Journal, 2020).
Numbering of substitutions follows the chain as printed. Names and notes keep the numbering of the source.

B1: hnRNPA2 LC S285C with a paramagnetic label (MTSL) at the engineered cysteine (domain or fragment, human, UniProt P22626-2 190-341, looked up)
chain: GRGGNFGFGDSRGGGGNFGPGPGSNFRGGSDGYGSGRGFGDGYNGYGGGPGGGNFGGSPGYGGGRGGYGGGGPGYGNQGGGYGGGYDNYGGGNYGCGNYNDFGNYNQQPSNYGPMKSGNFGGSRNMGGPYGGGNYGPGGSGGSGGYGGRSRY
modifications: small (~120 Da) paramagnetic label (MTSL) at the engineered cysteine 285
notes: hnRNPA2 low complexity domain, human, residues 190–341; Purified and labeled as described in Ryan et al, 2018; source: E. coli BL21 Star (DE3), purified from inclusion bodies (His-tag purification), MTSL-labeled
B2: hnRNPA2 LC S329C with a paramagnetic label (MTSL) at the engineered cysteine (domain or fragment, human, UniProt P22626-2 190-341, looked up)
chain: B1 chain with C96S, S140C
modifications: small (~120 Da) paramagnetic label (MTSL) at the engineered cysteine 329
notes: as for B1

Target: T1, ch‐TOG (CKAP5) TOG domain 1 (TOG D1, residues 1–250) (UniProt Q14008 1-250, AlexaFluor 555 or 405 (NHS ester) on ~1% of the protein in the droplet assays; 2H 15N labeled for the PRE experiments)
T1 construct: microtubule-associated protein ch-TOG (CKAP5), TOG domain 1, residues 1–250; also called TOG domain 1 (D1); source: E. coli BL21 Star (DE3), purified (HisTrap, Superdex 75, TEV cleavage, second HisTrap)
Experiment: NMR paramagnetic relaxation enhancement (PRE); TROSY-based 1HN R2 at 850 MHz, 25°C; NMR-invisible hnRNPA2 LC with a paramagnetic label at S285C or S329C mixed with 2H 15N TOG D1; paramagnetic against diamagnetic samples
Conditions: both partners purified

T1 sequence (Q14008 1-250): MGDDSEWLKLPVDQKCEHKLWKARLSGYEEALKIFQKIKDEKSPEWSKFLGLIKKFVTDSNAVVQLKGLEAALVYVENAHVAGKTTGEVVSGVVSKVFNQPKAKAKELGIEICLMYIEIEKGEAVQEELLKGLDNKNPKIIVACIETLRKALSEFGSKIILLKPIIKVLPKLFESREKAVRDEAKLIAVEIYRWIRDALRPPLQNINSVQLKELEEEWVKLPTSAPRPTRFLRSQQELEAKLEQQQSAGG

Binder	Kd [µM]
B1	> 100
B2	> 100
